Assay results: US20140294898A1 (published 2014)
Positions of bridges follow the written chain, without caps; N, C: chain ends. Non-standard residues stand in square brackets, D forms with d. Bip = N[C@@H](Cc1ccc(-c2ccccc2)cc1)C(=O)O; 1Nal = N[C@@H](Cc1cccc2ccccc12)C(=O)O; 2Nal = N[C@@H](Cc1ccc2ccccc2c1)C(=O)O; NMeNle = CCCC[C@H](NC)C(=O)O; NMeA = CN[C@@H](C)C(=O)O; Sar = CNCC(=O)O

B1: Compound No. 43 (peptide)
peptide: {CH2CO}-F[NMeA]GPHL[Sar]WSW[NMeNle][NMeNle]RCG-NH2
modifications: thioether N-14
SMILES: CCCC[C@H]1C(=O)N(C)[C@@H](CCCC)C(=O)N[C@@H](CCCNC(=N)N)C(=O)N[C@H](C(=O)NCC(N)=O)CSCC(=O)N[C@@H](Cc2ccccc2)C(=O)N(C)[C@@H](C)C(=O)NCC(=O)N2CCC[C@H]2C(=O)N[C@@H](Cc2c[nH]cn2)C(=O)N[C@@H](CC(C)C)C(=O)N(C)CC(=O)N[C@@H](Cc2c[nH]c3ccccc23)C(=O)N[C@@H](CO)C(=O)N[C@@H](Cc2c[nH]c3ccccc23)C(=O)N1C
notes: macrocyclic peptide, Formula I series; also called Compound 43
B2: Compound No. 53 (peptide)
peptide: {CH2CO}-F[NMeA]NPHLHWSW[NMeNle][NMeNle]RCG-NH2
modifications: thioether N-14
SMILES: CCCC[C@H]1C(=O)N(C)[C@@H](CCCC)C(=O)N[C@@H](CCCNC(=N)N)C(=O)N[C@H](C(=O)NCC(N)=O)CSCC(=O)N[C@@H](Cc2ccccc2)C(=O)N(C)[C@@H](C)C(=O)N[C@@H](CC(N)=O)C(=O)N2CCC[C@H]2C(=O)N[C@@H](Cc2c[nH]cn2)C(=O)N[C@@H](CC(C)C)C(=O)N[C@@H](Cc2c[nH]cn2)C(=O)N[C@@H](Cc2c[nH]c3ccccc23)C(=O)N[C@@H](CO)C(=O)N[C@@H](Cc2c[nH]c3ccccc23)C(=O)N1C
notes: macrocyclic peptide, Formula I series; also called Compound 53
B3: Compound No. 55 (peptide)
peptide: {CH2CO}-F[NMeA]NPHLPWSW[NMeNle][NMeNle]RCG-NH2
modifications: thioether N-14
SMILES: CCCC[C@H]1C(=O)N(C)[C@@H](CCCC)C(=O)N[C@@H](CCCNC(=N)N)C(=O)N[C@H](C(=O)NCC(N)=O)CSCC(=O)N[C@@H](Cc2ccccc2)C(=O)N(C)[C@@H](C)C(=O)N[C@@H](CC(N)=O)C(=O)N2CCC[C@H]2C(=O)N[C@@H](Cc2c[nH]cn2)C(=O)N[C@@H](CC(C)C)C(=O)N2CCC[C@H]2C(=O)N[C@@H](Cc2c[nH]c3ccccc23)C(=O)N[C@@H](CO)C(=O)N[C@@H](Cc2c[nH]c3ccccc23)C(=O)N1C
notes: macrocyclic peptide, Formula I series; also called Compound 55
B4: Compound No. 62 (peptide)
peptide: {CH2CO}-F[NMeA]NPHL[Sar]WSI[NMeNle][NMeNle]RCG-NH2
modifications: thioether N-14
SMILES: CCCC[C@H]1C(=O)N(C)[C@@H](CCCC)C(=O)N[C@@H](CCCNC(=N)N)C(=O)N[C@H](C(=O)NCC(N)=O)CSCC(=O)N[C@@H](Cc2ccccc2)C(=O)N(C)[C@@H](C)C(=O)N[C@@H](CC(N)=O)C(=O)N2CCC[C@H]2C(=O)N[C@@H](Cc2c[nH]cn2)C(=O)N[C@@H](CC(C)C)C(=O)N(C)CC(=O)N[C@@H](Cc2c[nH]c3ccccc23)C(=O)N[C@@H](CO)C(=O)N[C@@H]([C@@H](C)CC)C(=O)N1C
notes: macrocyclic peptide, Formula I series; also called Compound 62
B5: Compound No. 54 (peptide)
peptide: {CH2CO}-F[NMeA]NPHLRWSW[NMeNle][NMeNle]RCG-NH2
modifications: thioether N-14
SMILES: CCCC[C@H]1C(=O)N(C)[C@@H](CCCC)C(=O)N[C@@H](CCCNC(=N)N)C(=O)N[C@H](C(=O)NCC(N)=O)CSCC(=O)N[C@@H](Cc2ccccc2)C(=O)N(C)[C@@H](C)C(=O)N[C@@H](CC(N)=O)C(=O)N2CCC[C@H]2C(=O)N[C@@H](Cc2c[nH]cn2)C(=O)N[C@@H](CC(C)C)C(=O)N[C@@H](CCCNC(=N)N)C(=O)N[C@@H](Cc2c[nH]c3ccccc23)C(=O)N[C@@H](CO)C(=O)N[C@@H](Cc2c[nH]c3ccccc23)C(=O)N1C
notes: macrocyclic peptide, Formula I series; also called Compound 54
B6: Compound No. 51 (peptide)
peptide: {CH2CO}-F[NMeA]NPHD[Sar]WSW[NMeNle][NMeNle]RCG-NH2
modifications: thioether N-14
SMILES: CCCC[C@H]1C(=O)N(C)[C@@H](CCCC)C(=O)N[C@@H](CCCNC(=N)N)C(=O)N[C@H](C(=O)NCC(N)=O)CSCC(=O)N[C@@H](Cc2ccccc2)C(=O)N(C)[C@@H](C)C(=O)N[C@@H](CC(N)=O)C(=O)N2CCC[C@H]2C(=O)N[C@@H](Cc2c[nH]cn2)C(=O)N[C@@H](CC(=O)O)C(=O)N(C)CC(=O)N[C@@H](Cc2c[nH]c3ccccc23)C(=O)N[C@@H](CO)C(=O)N[C@@H](Cc2c[nH]c3ccccc23)C(=O)N1C
notes: macrocyclic peptide, Formula I series; also called Compound 51
B7: Compound No. 61 (peptide)
peptide: {CH2CO}-F[NMeA]NPHL[Sar]WSM[NMeNle][NMeNle]RCG-NH2
modifications: thioether N-14
SMILES: CCCC[C@H]1C(=O)N(C)[C@@H](CCCC)C(=O)N[C@@H](CCCNC(=N)N)C(=O)N[C@H](C(=O)NCC(N)=O)CSCC(=O)N[C@@H](Cc2ccccc2)C(=O)N(C)[C@@H](C)C(=O)N[C@@H](CC(N)=O)C(=O)N2CCC[C@H]2C(=O)N[C@@H](Cc2c[nH]cn2)C(=O)N[C@@H](CC(C)C)C(=O)N(C)CC(=O)N[C@@H](Cc2c[nH]c3ccccc23)C(=O)N[C@@H](CO)C(=O)N[C@@H](CCSC)C(=O)N1C
notes: macrocyclic peptide, Formula I series; also called Compound 61
B8: Compound No. 27 (peptide)
peptide: {CH2CO}-[1Nal][NMeA]NPHL[Sar]WSW[NMeNle][NMeNle]RCG-NH2
modifications: thioether N-14
SMILES: CCCC[C@H]1C(=O)N(C)[C@@H](CCCC)C(=O)N[C@@H](CCCNC(=N)N)C(=O)N[C@H](C(=O)NCC(N)=O)CSCC(=O)N[C@@H](Cc2cccc3ccccc23)C(=O)N(C)[C@@H](C)C(=O)N[C@@H](CC(N)=O)C(=O)N2CCC[C@H]2C(=O)N[C@@H](Cc2c[nH]cn2)C(=O)N[C@@H](CC(C)C)C(=O)N(C)CC(=O)N[C@@H](Cc2c[nH]c3ccccc23)C(=O)N[C@@H](CO)C(=O)N[C@@H](Cc2c[nH]c3ccccc23)C(=O)N1C
notes: macrocyclic peptide, Formula I series; also called Compound 27
B9: Compound No. 24 (peptide)
peptide: {CH2CO}-F[NMeA]NPHL[Sar]WSW[NMeNle][NMeNle]RC-NH2
modifications: thioether N-14
SMILES: CCCC[C@H]1C(=O)N(C)[C@@H](CCCC)C(=O)N[C@@H](CCCNC(=N)N)C(=O)N[C@H](C(N)=O)CSCC(=O)N[C@@H](Cc2ccccc2)C(=O)N(C)[C@@H](C)C(=O)N[C@@H](CC(N)=O)C(=O)N2CCC[C@H]2C(=O)N[C@@H](Cc2c[nH]cn2)C(=O)N[C@@H](CC(C)C)C(=O)N(C)CC(=O)N[C@@H](Cc2c[nH]c3ccccc23)C(=O)N[C@@H](CO)C(=O)N[C@@H](Cc2c[nH]c3ccccc23)C(=O)N1C
notes: macrocyclic peptide, Formula I series; also called Compound 24
B10: Compound No. 26 (peptide)
peptide: {CH2CO}-[2Nal][NMeA]NPHL[Sar]WSW[NMeNle][NMeNle]RCG-NH2
modifications: thioether N-14
SMILES: CCCC[C@H]1C(=O)N(C)[C@@H](CCCC)C(=O)N[C@@H](CCCNC(=N)N)C(=O)N[C@H](C(=O)NCC(N)=O)CSCC(=O)N[C@@H](Cc2ccc3ccccc3c2)C(=O)N(C)[C@@H](C)C(=O)N[C@@H](CC(N)=O)C(=O)N2CCC[C@H]2C(=O)N[C@@H](Cc2c[nH]cn2)C(=O)N[C@@H](CC(C)C)C(=O)N(C)CC(=O)N[C@@H](Cc2c[nH]c3ccccc23)C(=O)N[C@@H](CO)C(=O)N[C@@H](Cc2c[nH]c3ccccc23)C(=O)N1C
notes: macrocyclic peptide, Formula I series; also called Compound 26
B11: Compound No. 28 (peptide)
peptide: {CH2CO}-[Bip][NMeA]NPHL[Sar]WSW[NMeNle][NMeNle]RCG-NH2
modifications: thioether N-14
SMILES: CCCC[C@H]1C(=O)N(C)[C@@H](CCCC)C(=O)N[C@@H](CCCNC(=N)N)C(=O)N[C@H](C(=O)NCC(N)=O)CSCC(=O)N[C@@H](Cc2ccc(-c3ccccc3)cc2)C(=O)N(C)[C@@H](C)C(=O)N[C@@H](CC(N)=O)C(=O)N2CCC[C@H]2C(=O)N[C@@H](Cc2c[nH]cn2)C(=O)N[C@@H](CC(C)C)C(=O)N(C)CC(=O)N[C@@H](Cc2c[nH]c3ccccc23)C(=O)N[C@@H](CO)C(=O)N[C@@H](Cc2c[nH]c3ccccc23)C(=O)N1C
notes: macrocyclic peptide, Formula I series; also called Compound 28
B12: Compound No. 67 (peptide)
peptide: FANPHLGWSWFXRCG
HELM: PEPTIDE1{[O=C(C[*:3])[*:2]].F.[meA].N.P.H.L.[Sar].W.S.W.[meF].[CCCC[C@@H](C(=O)[*:2])N(C)[*:1]].R.C.G.[am]}$PEPTIDE1,PEPTIDE1,1:R3-15:R3$$$V2.0
SMILES: CCCC[C@H]1C(=O)N[C@@H](CCCNC(=N)N)C(=O)N[C@H](C(=O)NCC(N)=O)CSCC(=O)N[C@@H](Cc2ccccc2)C(=O)N(C)[C@@H](C)C(=O)N[C@@H](CC(N)=O)C(=O)N2CCC[C@H]2C(=O)N[C@@H](Cc2c[nH]cn2)C(=O)N[C@@H](CC(C)C)C(=O)N(C)CC(=O)N[C@@H](Cc2c[nH]c3ccccc23)C(=O)N[C@@H](CO)C(=O)N[C@@H](Cc2c[nH]c3ccccc23)C(=O)N(C)[C@@H](Cc2ccccc2)C(=O)N1C
notes: macrocyclic peptide, Formula I series; also called Compound 67
B13: Compound No. 19 (peptide)
peptide: FANPHLGWSWAXRCG
HELM: PEPTIDE1{[O=C(C[*:3])[*:2]].F.[meA].N.P.H.L.[Sar].W.S.W.[meA].[CCCC[C@@H](C(=O)[*:2])N(C)[*:1]].R.C.G.[am]}$PEPTIDE1,PEPTIDE1,1:R3-15:R3$$$V2.0
SMILES: CCCC[C@H]1C(=O)N[C@@H](CCCNC(=N)N)C(=O)N[C@H](C(=O)NCC(N)=O)CSCC(=O)N[C@@H](Cc2ccccc2)C(=O)N(C)[C@@H](C)C(=O)N[C@@H](CC(N)=O)C(=O)N2CCC[C@H]2C(=O)N[C@@H](Cc2c[nH]cn2)C(=O)N[C@@H](CC(C)C)C(=O)N(C)CC(=O)N[C@@H](Cc2c[nH]c3ccccc23)C(=O)N[C@@H](CO)C(=O)N[C@@H](Cc2c[nH]c3ccccc23)C(=O)N(C)[C@@H](C)C(=O)N1C
notes: macrocyclic peptide, Formula I series; also called Compound 19
B14: Compound No. 65 (peptide)
peptide: FANPHLGWSWLXRCG
HELM: PEPTIDE1{[O=C(C[*:3])[*:2]].F.[meA].N.P.H.L.[Sar].W.S.W.[meL].[CCCC[C@@H](C(=O)[*:2])N(C)[*:1]].R.C.G.[am]}$PEPTIDE1,PEPTIDE1,1:R3-15:R3$$$V2.0
SMILES: CCCC[C@H]1C(=O)N[C@@H](CCCNC(=N)N)C(=O)N[C@H](C(=O)NCC(N)=O)CSCC(=O)N[C@@H](Cc2ccccc2)C(=O)N(C)[C@@H](C)C(=O)N[C@@H](CC(N)=O)C(=O)N2CCC[C@H]2C(=O)N[C@@H](Cc2c[nH]cn2)C(=O)N[C@@H](CC(C)C)C(=O)N(C)CC(=O)N[C@@H](Cc2c[nH]c3ccccc23)C(=O)N[C@@H](CO)C(=O)N[C@@H](Cc2c[nH]c3ccccc23)C(=O)N(C)[C@@H](CC(C)C)C(=O)N1C
notes: macrocyclic peptide, Formula I series; also called Compound 65

These binders were tested against T1, human PD-L1 (human, UniProt Q9NZQ7 19-239, limits assumed) (assay: cell binding assay, inhibition of Hu PD-L1/PD-1 binding).
T1 construct: also called Hu PD-L1; hPD-L1
T1 sequence (Q9NZQ7 19-239 limits assumed): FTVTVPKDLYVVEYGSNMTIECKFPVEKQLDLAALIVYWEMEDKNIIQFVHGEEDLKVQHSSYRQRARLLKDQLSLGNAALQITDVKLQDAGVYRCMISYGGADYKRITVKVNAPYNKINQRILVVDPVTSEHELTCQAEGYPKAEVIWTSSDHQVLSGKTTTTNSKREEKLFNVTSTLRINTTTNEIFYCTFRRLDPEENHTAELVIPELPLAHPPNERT

| IC50 [nM] | Binder |
| --- | --- |
| 5330 | B1 |
| 47 | B2 |
| 3 | B3 |
| 3410 | B4 |
| 68 | B5 |
| 118 | B6 |
| 195 | B7 |
| 28 | B8 |
| 8 | B9 |
| 13 | B10 |
| 82 | B11 |
| 143 | B12 |
| 134 | B13 |
| 258 | B14 |
